B1: U4/U6.U5 tri-snRNP-associated protein 2 (protein, UniProt Q53GS9 1-565, looked up)
Ubiquitin carboxyl-terminal …: MSGRSKRESRGSTRGKRESESRGSSGRVKRERDREREPEAASSRGSPVRVKREFEPASAREAPASVVPFVRVKREREVDEDSEPEREVRAKNGRVDSEDRRSRHCPYLDTINRSVLDFDFEKLCSISLSHINAYACLVCGKYFQGRGLKSHAYIHSVQFSHHVFLNLHTLKFYCLPDNYEIIDSSLEDITYVLKPTFTKQQIANLDKQAKLSRAYDGTTYLPGIVGLNNIKANDYANAVLQALSNVPPLRNYFLEEDNYKNIKRPPGDIMFLLVQRFGELMRKLWNPRNFKAHVSPHEMLQAVVLCSKKTFQITKQGDGVDFLSWFLNALHSALGGTKKKKKTIVTDVFQGSMRIFTKKLPHPDLPAEEKEQLLHNDEYQETMVESTFMYLTLDLPTAPLYKDEKEQLIIPQVPLFNILAKFNGITEKEYKTYKENFLKRFQLTKLPPYLIFCIKRFTKNNFFVEKNPTIVNFPITNVDLREYLSEEVQAVHKNTTYDLIANIVHDGKPSEGSYRIHVLHHGTGKWYELQDLQVTDILPQMITLSEAYIQIWKRRDNDETNQQGA
notes: prey protein
B2: Isocitrate dehydrogenase [NAD] subunit gamma, mitochondrial (protein, UniProt P51553 40-393, looked up)
Isocitrate dehydrogenase …: FSEQTIPPSAKYGGRHTVTMIPGDGIGPELMLHVKSVFRHACVPVDFEEVHVSSNADEEDIRNAIMAIRRNRVALKGNIETNHNLPPSHKSRNNILRTSLDLYANVIHCKSLPGVVTRHKDIDILIVRENTEGEYSSLEHESVAGVVESLKIITKAKSLRIAEYAFKLAQESGRKKVTAVHKANIMKLGDGLFLQCCREVAARYPQITFENMIVDNTTMQLVSRPQQFDVMVMPNLYGNIVNNVCAGLVGGPGLVAGANYGHVYAVFETATRNTGKSIANKNIANPTATLLASCMMLDHLKLHSYATSIRKAVLASMDNENMHTPDIGGQGTTSEAIQDVIRHIRVINGRAVEA
notes: prey protein
B3: Complement component 1 Q subcomponent-binding protein, mitochondrial (protein, UniProt Q07021 74-282, looked up)
Complement component 1 Q …: LHTDGDKAFVDFLSDEIKEERKIQKHKTLPKMSGGWELELNGTEAKLVRKVAGEKITVTFNINNSIPPTFDGEEEPSQGQKVEEQEPELTSTPNFVVEVIKNDDGKKALVLDCHYPEDEVGQEDEAESDIFSIREVSFQSTGESEWKDTNYTLNTDSLDWALYDHLMDFLADRGVDNTFADELVELSTALEHQEYITFLEDLKSFVKSQ
notes: prey protein
B4: LMNA (protein, UniProt P02545 1-661, looked up)
Prelamin-A/C: METPSQRRATRSGAQASSTPLSPTRITRLQEKEDLQELNDRLAVYIDRVRSLETENAGLRLRITESEEVVSREVSGIKAAYEAELGDARKTLDSVAKERARLQLELSKVREEFKELKARNTKKEGDLIAAQARLKDLEALLNSKEAALSTALSEKRTLEGELHDLRGQVAKLEAALGEAKKQLQDEMLRRVDAENRLQTMKEELDFQKNIYSEELRETKRRHETRLVEIDNGKQREFESRLADALQELRAQHEDQVEQYKKELEKTYSAKLDNARQSAERNSNLVGAAHEELQQSRIRIDSLSAQLSQLQKQLAAKEAKLRDLEDSLARERDTSRRLLAEKEREMAEMRARMQQQLDEYQELLDIKLALDMEIHAYRKLLEGEEERLRLSPSPTSQRSRGRASSHSSQTQGGGSVTKKRKLESTESRSSFSQHARTSGRVAVEEVDEEGKFVRLRNKSNEDQSMGNWQIKRQNGDDPLLTYRFPPKFTLKAGQVVTIWAAGAGATHSPPTDLVWKAQNTWGCGNSLRTALINSTGEEVAMRKLVRSVTVVEDDEDEDGDDLLHHHHGSHCSSSGDPAEYNLRSRTVLCGTCGQPADKASASGSGAQVGGPISSGSSASSVTVTRSYRSVGGSGGGSFGDNLVTRSYLLGNSSPRTQSPQNC
B5: p47: p97 cofactor (protein)
chain: MAAERQEALREFVAVTGAEEDRARFFLESAGWDLQIALASFYEDGGDEDIVTISQATPSSVSRGTAPSDNRVTSFRDLIHDQDEDEEEEEGQRFYAGGSERSGQQIVGPPRKKSPNELVDDLFKGAKEHGAVAVERVTKSPGETSKPRPFAGGGYRLGAAPEEESAYVAGEKRQHSSQDVHVVLKLWKSGFSLDNGELRSYQDPSNAQFLESIRRGEVPAELRRLAHGGQVNLDMEDHRDEDFVKPKGAFKAFTGEGQKLGSTAPQVLSTSSPAQQAENEAKASSSILIDESEPTTNIQIRLADGGRLVQKFNHSHRISDIRLFIVDARPAMAATSFILMTTFPNKELADESQTLKEANLLNAVIVQRLT
modifications: left off: His6, end not stated, state not stated
notes: p97 cofactor

Columns and labels:
[1] = system: GFP-VCF1 WT interactome, U2OS cells; test: GFP IP mass spectrometry of VCF1-interacting proteins, partially denaturing RIPA buffer (+DOX/-DOX); format: binding, human
Experimental: (§1) U2OS (catalog no. HTB-96) cells were obtained from ATCC. HEK293-EBNA1-6E cells were a kind gift from Yves Durocher (National Research Council Canada, Montreal, Canada). All mammalian cell lines were cultured under standard conditions at 37 °C and 5% CO2 in DMEM (Thermo) supplemented with 10% FBS (v/v) and penicillin-streptomycin (Thermo). Recombination cloning-compatible U2OS cells were generated using the Flp-In T-Rex Core Kit (Thermo) according to the manufacturer’s instructions and maintained under selection using Blasticidin (Invivogen) and Zeocin (Thermo). To generate cell lines stably expressing GFP-VCF1, U2OS Flp-In T-Rex cells (Thermo) were co-transfected with GFP-VCF1 constructs and pOG44 (Thermo) plasmids, followed by selection with Hygromycin (Invitrogen). Single clones were carefully screened for uniform expression of ectopic GFP-VCF1 at low levels and maintained under selection with Blasticidin and Hygromycin. To induce GFP-VCF1 expression, cells were treated with Doxycycline (DOX) (0.5 µg/ml) for 16 h. U2OS cell lines stably expressing Ub(G76V)-GFP or Ub(G76V)-GFP-20AA were described previously. A U2OS cell line stably expressing Ub(G76V)-GFP-NES was generated under G418 (Invivogen) selection. Clones with low baseline GFP expression were visually screened for low basal GFP expression. All cell lines used in this study were regularly tested negative for mycoplasma infection and were not authenticated.
Immunoblotting was performed as previously described. Immunoprecipitation (IP) of HA-tagged proteins was performed using Anti-HA Affinity matrix (Roche) under denaturing conditions, unless otherwise stated. GFP-trap and […] Fab-trap agarose (Chromotek) were used according to manufacturer’s instructions. Cell lysis was performed using RIPA buffer (140 mM NaCl; 10 mM Tris-HCl, pH 8.0; 0.1% sodium deoxycholate; 1% Triton X-100; 0.1% SDS; 1 mM EDTA; 0.5 mM EGTA) or EBC buffer (50 mM Tris, pH 7.5; 150 mM NaCl; 1 mM EDTA; 0.5% NP-40, 1 mM DTT). IPs were washed in non-denaturing buffer (50 mM Tris-HCl, pH 7.5; 150 mM NaCl; 0.5 mM EDTA). […]

[2] = system: GFP-VCF1 WT / N167A interactome, U2OS cells; test: GFP IP mass spectrometry, comparison of VCF1 WT and N167A interactomes (WT/N167A); format: binding, human; conditions: GFP-VCF1 WT / N167A IPs, partially denaturing RIPA buffer
Experimental: as §1, with “All cell lines used in this study were regularly tested negative for mycoplasma infection and were not authenticated.” left out

p97 = conditions: reported for p47/NSFL1C; cited from earlier work
Description: Through in silico searches for candidate regulators of p97 function, we came across FAM104A, a virtually uncharacterized protein detected in unbiased large-scale proteomic profiles of p97 interaction networks along with known p97 cofactors (Supplementary Fig. 1a)[20],[21], but whose precise connection to p97 has not been studied. In humans, FAM104A encodes a relatively small protein of 186 amino acids that contains no annotated domains but is conserved across vertebrates (Supplementary Fig. 1b) and is broadly expressed, albeit at low levels, in human tissues. For reasons described in the follo ...

[3] = system: p97 with UFD1-NPL4, p47 or FAF1; test: In vitro binding with p97 cofactors (GST, StrepTactin, p47, p97 or FLAG pulldown); parameters: species or system human; conditions: high/increasing concentrations
Experimental: All in vitro binding experiments were performed in EBC or RIPA buffer as indicated. Recombinant Biotin-tagged K48-linked poly-ubiquitin chains (2−7) and K48-linked poly-ubiquitin chains (2−16) were purchased from R&D Systems and Enzo Life Science, respectively. Recombinant proteins were incubated with Strep-Tactin Sepharose (IBA), Glutathione agarose (Gold Biotechnology) or […] Fab-trap agarose (ChromoTek) overnight on an end-over-end rotator at 4 °C, washed six times with EBC or RIPA buffer, and resuspended in 2×Laemmli sample buffer. For p97, VCF1 or p47 pulldowns, antibodies (0.5 µg/sample) were coupled to agarose beads, incubated with recombinant proteins or cell lysates and washed with the indicated buffer. To assess p97-UFD1-NPL4 binding to ubiquitylated proteins in total cell extracts, U2OS cells were lysed in EBC buffer supplemented with protease and phosphatase inhibitors, sonicated and incubated on ice for 10 min. Lysates were cleared by centrifugation for 10 min at 16,100 × g. Cell lysate (40 µg) was added to recombinant proteins in EBC buffer, incubated overnight on the rotator with […] Fab-trap agarose (ChromoTek), and beads were washed six times.

Row | Molecule | Relative protein level (log2) WT/noDox [1] | other results
1 | B1 | 1.44 log2 | –
2 | B2 | 1.726 log2 | –
3 | B3 | 2.689 log2 | –
4 | B4 | – | Relative protein level (log2) WT/MUT [2]: 3.361 log2
5 | B5 | – | Kd (p97): 200 to 500 nM; displacement of p97-bound cofactors [3]: did not lead to dissociation of VCF1 from p97

Source: publication PMC10950897, “VCF1 is a p97/VCP cofactor promoting recognition of ubiquitylated p97-UFD1-NPL4 substrates” (Nature Communications, 2024)
